Source: patent US20180273587A1 (AILERON THERAPEUTICS, published 2018)
Positions of bridges follow the written chain, without caps; N, C: chain ends. Non-standard residues stand in square brackets, D forms with d. Phe(4-F) = N[C@@H](Cc1ccc(F)cc1)C(=O)O; R8 = C=CCCCCCC[C@@](C)(N)C(=O)O; Cit = NC(=O)NCCC[C@H](N)C(=O)O; αMeD = C[C@](N)(CC(=O)O)C(=O)O; αMeL = CC(C)C[C@](C)(N)C(=O)O; hLeu = CC(C)CC[C@H](N)C(=O)O; S5 = C=CCCC[C@](C)(N)C(=O)O; Aib = CC(C)(N)C(=O)O

Columns and labels:
MCL-1 [1] = molecular target: T1, MCL-1 (UniProt Q07820 172-327, limits assumed); assay: Ki; method not stated; unit not printed (nM per Table 6)
T1 construct: Target of the Ki columns; also called Myeloid cell leukemia 1
T1 sequence (Q07820 172-327 limits assumed): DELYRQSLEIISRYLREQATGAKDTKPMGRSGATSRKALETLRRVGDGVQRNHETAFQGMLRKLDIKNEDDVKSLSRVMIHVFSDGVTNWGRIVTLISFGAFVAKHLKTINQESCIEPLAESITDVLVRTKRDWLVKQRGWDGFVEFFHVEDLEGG

BCL-XL [2] = molecular target: T2, BCL-XL (UniProt Q07817 1-209); assay: as above
T2 construct: Target of the Ki columns
T2 sequence (Q07817 1-209): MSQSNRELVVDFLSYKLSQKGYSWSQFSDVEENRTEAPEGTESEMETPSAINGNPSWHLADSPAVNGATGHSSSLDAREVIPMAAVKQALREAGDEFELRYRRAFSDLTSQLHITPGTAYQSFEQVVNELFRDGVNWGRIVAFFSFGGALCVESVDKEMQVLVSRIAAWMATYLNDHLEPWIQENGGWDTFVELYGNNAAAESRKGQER

BCL-2 = BCL-2 (UniProt P10415 1-217, limits assumed); assay: Ki table, method not stated
BCL-XL [3] = molecular target: BCL-XL (UniProt Q07817 1-209); assay: Ki table, method not stated
Target sequence in this assay (Q07817 1-209): as above

MCL-1 [4] = molecular target: T3, MCL-1 (UniProt Q07820 172-327, limits assumed); assay: Ki table, method not stated
T3 construct: also called Myeloid cell leukemia 1
T3 sequence (Q07820 172-327 limits assumed): as the sequence (Q07820 172-327 limits assumed) above

Chain of BCL-2 (P10415 1-217 limits assumed): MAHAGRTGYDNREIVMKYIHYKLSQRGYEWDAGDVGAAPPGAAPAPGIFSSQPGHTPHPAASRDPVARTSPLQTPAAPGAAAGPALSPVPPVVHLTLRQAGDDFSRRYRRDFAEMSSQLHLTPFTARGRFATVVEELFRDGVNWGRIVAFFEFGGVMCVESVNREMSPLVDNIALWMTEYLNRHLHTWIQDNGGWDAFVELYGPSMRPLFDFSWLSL

| Binder | Ki (MCL-1 [1]) [nM] | Ki (BCL-XL [2]) [nM] | other results |
| --- | --- | --- | --- |
| Ac-IWIAQALR[R8][hLeu]GDAFN[S5][Phe(4-F)]YA-NH2 (staple 9-16; SMILES CC[C@H](C)[C@H](NC(C)=O)C(=O)N[C@@H](Cc1c[nH]c2ccccc12)C(=O)N[C@H](C(=O)N[C@@H](C)C(=O)N[C@@H](CCC(N)=O)C(=O)N[C@@H](C)C(=O)N[C@@H](CC(C)C)C(=O)N[C@@H](CCCNC(=N)N)C(=O)N[C@]1(C)CCCCCCC=CCCC[C@@](C)(C(=O)N[C@@H](Cc2ccc(F)cc2)C(=O)N[C@@H](Cc2ccc(O)cc2)C(=O)N[C@@H](C)C(N)=O)NC(=O)[C@H](CC(N)=O)NC(=O)[C@H](Cc2ccccc2)NC(=O)[C@H](C)NC(=O)[C@H](CC(=O)O)NC(=O)CNC(=O)[C@H](CCC(C)C)NC1=O)[C@@H](C)CC) [SEQ ID NO: 1776] | 58 | 43 | – |
| Ac-IWIAQALR[R8]IG[αMeD]AFN[S5]YYA-NH2 (staple 9-16; SMILES CC[C@H](C)[C@H](NC(C)=O)C(=O)N[C@@H](Cc1c[nH]c2ccccc12)C(=O)N[C@H](C(=O)N[C@@H](C)C(=O)N[C@@H](CCC(N)=O)C(=O)N[C@@H](C)C(=O)N[C@@H](CC(C)C)C(=O)N[C@@H](CCCNC(=N)N)C(=O)N[C@]1(C)CCCCCCC=CCCC[C@@](C)(C(=O)N[C@@H](Cc2ccc(O)cc2)C(=O)N[C@@H](Cc2ccc(O)cc2)C(=O)N[C@@H](C)C(N)=O)NC(=O)[C@H](CC(N)=O)NC(=O)[C@H](Cc2ccccc2)NC(=O)[C@H](C)NC(=O)[C@](C)(CC(=O)O)NC(=O)CNC(=O)[C@H]([C@@H](C)CC)NC1=O)[C@@H](C)CC) [SEQ ID NO: 1768] | – | 206 | – |
| Ac-IWIAQAA[Cit][R8]IGDAFN[S5]YYA-NH2 (staple 9-16; SMILES CC[C@H](C)[C@H](NC(C)=O)C(=O)N[C@@H](Cc1c[nH]c2ccccc12)C(=O)N[C@H](C(=O)N[C@@H](C)C(=O)N[C@@H](CCC(N)=O)C(=O)N[C@@H](C)C(=O)N[C@@H](C)C(=O)N[C@@H](CCCNC(N)=O)C(=O)N[C@]1(C)CCCCCCC=CCCC[C@@](C)(C(=O)N[C@@H](Cc2ccc(O)cc2)C(=O)N[C@@H](Cc2ccc(O)cc2)C(=O)N[C@@H](C)C(N)=O)NC(=O)[C@H](CC(N)=O)NC(=O)[C@H](Cc2ccccc2)NC(=O)[C@H](C)NC(=O)[C@H](CC(=O)O)NC(=O)CNC(=O)[C@H]([C@@H](C)CC)NC1=O)[C@@H](C)CC) [SEQ ID NO: 1771] | – | 85 | – |
| Ac-IWIAQAL[Cit][R8]IGDAAN[S5]YYA-NH2 (staple 9-16; SMILES CC[C@H](C)[C@H](NC(C)=O)C(=O)N[C@@H](Cc1c[nH]c2ccccc12)C(=O)N[C@H](C(=O)N[C@@H](C)C(=O)N[C@@H](CCC(N)=O)C(=O)N[C@@H](C)C(=O)N[C@@H](CC(C)C)C(=O)N[C@@H](CCCNC(N)=O)C(=O)N[C@]1(C)CCCCCCC=CCCC[C@@](C)(C(=O)N[C@@H](Cc2ccc(O)cc2)C(=O)N[C@@H](Cc2ccc(O)cc2)C(=O)N[C@@H](C)C(N)=O)NC(=O)[C@H](CC(N)=O)NC(=O)[C@H](C)NC(=O)[C@H](C)NC(=O)[C@H](CC(=O)O)NC(=O)CNC(=O)[C@H]([C@@H](C)CC)NC1=O)[C@@H](C)CC) [SEQ ID NO: 1773] | 39.5 | – | – |
| Ac-IWIAQAL[Cit][R8]IGDAVN[S5]YYA-NH2 (staple 9-16; SMILES CC[C@H](C)[C@H](NC(C)=O)C(=O)N[C@@H](Cc1c[nH]c2ccccc12)C(=O)N[C@H](C(=O)N[C@@H](C)C(=O)N[C@@H](CCC(N)=O)C(=O)N[C@@H](C)C(=O)N[C@@H](CC(C)C)C(=O)N[C@@H](CCCNC(N)=O)C(=O)N[C@]1(C)CCCCCCC=CCCC[C@@](C)(C(=O)N[C@@H](Cc2ccc(O)cc2)C(=O)N[C@@H](Cc2ccc(O)cc2)C(=O)N[C@@H](C)C(N)=O)NC(=O)[C@H](CC(N)=O)NC(=O)[C@H](C(C)C)NC(=O)[C@H](C)NC(=O)[C@H](CC(=O)O)NC(=O)CNC(=O)[C@H]([C@@H](C)CC)NC1=O)[C@@H](C)CC) [SEQ ID NO: 1774] | 0.8 | – | – |
| IWIAQALXAIGDAFNAYYA (Ac- at N-terminus; -NH2 at C-terminus; $r8 at 9 and $ at 16 joined by all-carbon crosslinker; Cit (citrulline) at 8) [SEQ ID NO: 1655] | – | – | Ki (BCL-2): 212 nM; Ki (BCL-XL [3]): 109 nM; Ki (MCL-1 [4]): 7.5 nM |
| Ac-[Aib]WIAAALR[R8]IGDAFN[S5]YYA-NH2 (staple 9-16; SMILES CC[C@H](C)[C@H](NC(=O)[C@H](Cc1c[nH]c2ccccc12)NC(=O)C(C)(C)NC(C)=O)C(=O)N[C@@H](C)C(=O)N[C@@H](C)C(=O)N[C@@H](C)C(=O)N[C@@H](CC(C)C)C(=O)N[C@@H](CCCNC(=N)N)C(=O)N[C@]1(C)CCCCCCC=CCCC[C@@](C)(C(=O)N[C@@H](Cc2ccc(O)cc2)C(=O)N[C@@H](Cc2ccc(O)cc2)C(=O)N[C@@H](C)C(N)=O)NC(=O)[C@H](CC(N)=O)NC(=O)[C@H](Cc2ccccc2)NC(=O)[C@H](C)NC(=O)[C@H](CC(=O)O)NC(=O)CNC(=O)[C@H]([C@@H](C)CC)NC1=O, also called Ac-AibWIAAALR$r8IGDAFN$YYA-NH2) [SEQ ID NO: 1723] | – | – | Ki (BCL-2): 56 nM; Ki (BCL-XL [3]): 20.3 nM; Ki (MCL-1 [4]): 4 nM |

Further lines, with some results ahead:

| Ki (MCL-1 [1]) [nM] | Ki (BCL-XL [2]) [nM] | Binder | other results |
| --- | --- | --- | --- |
| 27 | 13 | Ac-IWIAQALR[R8][hLeu]GDAFN[S5]Y[Phe(4-F)]A-NH2 (staple 9-16; SMILES CC[C@H](C)[C@H](NC(C)=O)C(=O)N[C@@H](Cc1c[nH]c2ccccc12)C(=O)N[C@H](C(=O)N[C@@H](C)C(=O)N[C@@H](CCC(N)=O)C(=O)N[C@@H](C)C(=O)N[C@@H](CC(C)C)C(=O)N[C@@H](CCCNC(=N)N)C(=O)N[C@]1(C)CCCCCCC=CCCC[C@@](C)(C(=O)N[C@@H](Cc2ccc(O)cc2)C(=O)N[C@@H](Cc2ccc(F)cc2)C(=O)N[C@@H](C)C(N)=O)NC(=O)[C@H](CC(N)=O)NC(=O)[C@H](Cc2ccccc2)NC(=O)[C@H](C)NC(=O)[C@H](CC(=O)O)NC(=O)CNC(=O)[C@H](CCC(C)C)NC1=O)[C@@H](C)CC) [SEQ ID NO: 1777] | – |
| 86.6 | – | Ac-IWIAQA[αMeL]R[R8]IGDAFN[S5]YYA-NH2 (staple 9-16; SMILES CC[C@H](C)[C@H](NC(C)=O)C(=O)N[C@@H](Cc1c[nH]c2ccccc12)C(=O)N[C@H](C(=O)N[C@@H](C)C(=O)N[C@@H](CCC(N)=O)C(=O)N[C@@H](C)C(=O)N[C@@](C)(CC(C)C)C(=O)N[C@@H](CCCNC(=N)N)C(=O)N[C@]1(C)CCCCCCC=CCCC[C@@](C)(C(=O)N[C@@H](Cc2ccc(O)cc2)C(=O)N[C@@H](Cc2ccc(O)cc2)C(=O)N[C@@H](C)C(N)=O)NC(=O)[C@H](CC(N)=O)NC(=O)[C@H](Cc2ccccc2)NC(=O)[C@H](C)NC(=O)[C@H](CC(=O)O)NC(=O)CNC(=O)[C@H]([C@@H](C)CC)NC1=O)[C@@H](C)CC, Row prints Ac-IWIAQAAmLR$r8IGDAFN$YYA-NH2) [SEQ ID NO: 1767] | – |
